Where no end group is shown, it is not given here.
T1: HA-tagged PA of FluB (Influenza B virus)
T1 chain: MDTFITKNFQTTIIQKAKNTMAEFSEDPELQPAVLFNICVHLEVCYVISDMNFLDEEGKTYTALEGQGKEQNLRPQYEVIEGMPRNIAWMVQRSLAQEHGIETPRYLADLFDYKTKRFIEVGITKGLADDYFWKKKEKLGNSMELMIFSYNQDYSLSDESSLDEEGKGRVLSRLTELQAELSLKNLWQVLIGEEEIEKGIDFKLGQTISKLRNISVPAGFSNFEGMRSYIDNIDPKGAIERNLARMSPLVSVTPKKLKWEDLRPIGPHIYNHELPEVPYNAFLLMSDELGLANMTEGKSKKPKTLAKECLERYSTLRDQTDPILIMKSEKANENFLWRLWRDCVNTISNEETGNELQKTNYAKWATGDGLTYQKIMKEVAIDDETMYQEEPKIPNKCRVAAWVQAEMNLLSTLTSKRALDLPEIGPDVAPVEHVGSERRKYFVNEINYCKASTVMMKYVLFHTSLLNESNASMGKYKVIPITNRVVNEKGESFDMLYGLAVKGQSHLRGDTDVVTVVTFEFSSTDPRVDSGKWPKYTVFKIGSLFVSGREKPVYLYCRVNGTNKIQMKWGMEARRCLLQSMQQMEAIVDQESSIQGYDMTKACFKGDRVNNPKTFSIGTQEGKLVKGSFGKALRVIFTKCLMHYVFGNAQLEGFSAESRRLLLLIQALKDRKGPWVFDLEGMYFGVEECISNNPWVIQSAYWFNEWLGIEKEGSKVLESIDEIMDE

B1: PB1_(1–15)B competitor peptide (peptide)
chain: MNINPYFLFIDVPIQ-NH2
B2: PB1_(1–15)A competitor peptide (peptide)
peptide: MDVNPTLLFLKVPAQ-NH2

Key:
[1] = target: HA-tagged PA of FluA (Influenza A virus); test: ELISA
[2] = target: T1, HA-tagged PA of FluB; test: ELISA

Binder	IC50 [1] [µM]	IC50 [2] [µM]
B1	> 3	0.045
B2	–	> 3

— PMC2759517 (2009)
